Source: US20240368275A1 (ELPIS BIOPHARMACEUTICALS, published 2024)
Changes are numbered by the printed parent chain. Names and notes keep the numbering of the source.

T1: full-length human Nectin4 with C-terminal flag and Myc tags on CHO cells (human, UniProt Q96NY8 32-510)
T1 construct: whole, on cells; also called Nectin4/CHO; CHO/Nectin4; not shown: C-terminal flag and Myc tags of pCMV6-Entry vector
T1 sequence (looked up): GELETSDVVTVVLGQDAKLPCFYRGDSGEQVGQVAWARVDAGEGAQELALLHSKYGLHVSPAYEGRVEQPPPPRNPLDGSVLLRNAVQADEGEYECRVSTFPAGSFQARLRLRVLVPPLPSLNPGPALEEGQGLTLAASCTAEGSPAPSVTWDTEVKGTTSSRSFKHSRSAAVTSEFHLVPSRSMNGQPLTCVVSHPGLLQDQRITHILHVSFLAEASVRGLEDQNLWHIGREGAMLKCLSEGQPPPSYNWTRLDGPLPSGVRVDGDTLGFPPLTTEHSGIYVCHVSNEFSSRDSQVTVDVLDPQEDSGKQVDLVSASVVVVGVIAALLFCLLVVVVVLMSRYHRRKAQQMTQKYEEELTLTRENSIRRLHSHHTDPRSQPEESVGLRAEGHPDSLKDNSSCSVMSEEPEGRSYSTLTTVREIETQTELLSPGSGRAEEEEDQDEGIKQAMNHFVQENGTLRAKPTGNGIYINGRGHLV

T2: human Nectin4-HIS tagged recombinant protein (human, UniProt Q96NY8 32-349)
T2 construct: also called hNectin4-HIS; Nectin4 HIS tagged protein; not shown: HIS tag
T2 sequence (looked up): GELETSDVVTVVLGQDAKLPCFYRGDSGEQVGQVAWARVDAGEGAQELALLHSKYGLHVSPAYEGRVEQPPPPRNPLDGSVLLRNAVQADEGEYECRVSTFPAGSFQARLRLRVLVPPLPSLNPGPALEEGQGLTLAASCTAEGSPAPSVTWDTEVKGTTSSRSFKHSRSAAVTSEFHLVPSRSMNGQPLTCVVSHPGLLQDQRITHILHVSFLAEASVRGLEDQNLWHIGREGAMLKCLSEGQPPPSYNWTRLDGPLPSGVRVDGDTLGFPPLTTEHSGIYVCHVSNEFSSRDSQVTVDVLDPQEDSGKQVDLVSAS

B1: 2020EP47-F02 IgG (EP544/EP545) (antibody, V domains shown)
VH: QVQLQQWGAGLLKPSETLSLTCAVYGGSFSGYYWSWIRQPPGKGLEWIGEINHSGSTNYNPSLKSRVTISVDTSKNQFSLKLSSVTAADTAVYYCARGWYLGFDYWGQGTLVTVSS
VL: QSVLTQPRSVSGSPGQSVTISCTGTSRDVGGYDYVSWYQQYPGKAPKLMISGVSERPSGVPDRFTGSRSANTASLTISGLQTDDEANYYCCSYAGSFTWVFGDGTKLTVLG
notes: Human IgG1 with lambda light chain; entries without signal peptide used
B2: EP369/371/289 anti-Nectin4/CD3/IL2 protein complex (bispecific antibody)
chain: not shown
heavy: not shown
light: QAVVTQPPSVSVAPGKTATITCGGNNIGSKGVHWYQQKPGQAPVLVIYYDTDRPSGIPERLSGSNSGNTATLTISRVEAGDEADYYCQVWDSSSDHPVFGGGTKLTVLGQPKANPTVTLFPPSSEELQANKATLVCLISDFYPGAVTVAWKADGSPVKAGVETTKPSKQSNNKYAASSYLSLTPEQWKSHRSYSCQVTHEGSTVEKTVAPTECS
notes: Anti-CD3 sp34 scFv-Fc knob (EP369), B09 heavy chain hole with wild-type IL2 at the C-terminus (EP371), light chain EP289; also called EP369/EP371/EP289
B3: EP499/EP378/EP289 anti-Nectin4/CD3 bispecific antibody (bispecific antibody)
heavy 1: EVQLVQSGAEVKKPGASVKVSCKASGYTFTGYYMHWVRQAPGQGLEWMGRINPNSGGTNYAQKFQGRVTMTRDTSISTAYMELSGLRSDDTAVYFCARVTYNIGWYIDYWGQGTLVTVSSASTKGPSVFPLAPSSKSTSGGTAALGCLVKDYFPEPVTVSWNSGALTSGVHTFPAVLQSSGLYSLSSVVTVPSSSLGTQTYICNVNHKPSNTKVDKKVEPKSCDGGGGSGGGGSEVQLVESGGGLVQPGGSLRLSCAASGFTFNTYAMNWVRQAPGKGLEWVARIRSKYNNYATYYAASVKGRFTISRDDSKNSLFLQMNSLKTEDTAVYYCVRHGNFGNSYVSWFAYWGQGTLVTVSSGGGGSGGGGSGGGGSGGGGSQTVVTQEPSLTVSPGGTVTLTCRSSTGAVTTSNYANWVQEKPDHLFTGLIGGTNKRAPGVPARFSGSLLGGKAALTLSGVQPEDEAIYFCALWYSNLWVFGSGTKVTVLEPKSCDKTHTCPPCPAPEAAGGPSVFLFPPKPKDTLMISRTPEVTCVVVDVSHEDPEVKFNWYVDGVEVHNAKTKPREEQYNSTYRVVSVLTVLHQDWLNGKEYKCKVSNKALGAPIEKTISKAKGQPREPQVCTLPPSRDELTKNQVSLSCAVKGFYPSDIAVEWESNGQPENNYKTTPPVLDSDGSFKLVSKLTVDKSRWQQGNVFSCSVMHEALHNHYTQKSLSLSPGK
heavy 2: not shown
light: B2 light
notes: Bivalent for Nectin4; EP499 carries a humanized SP34 scFv between CH1 and hinge, hole; also called EP499/378/289
B4: EP369/379/289 anti-Nectin4/CD3/IL2 protein complex (bispecific antibody)
chain: not shown
heavy: EVQLVQSGAEVKKPGASVKVSCKASGYTFTGYYMHWVRQAPGQGLEWMGRINPNSGGTNYAQKFQGRVTMTRDTSISTAYMELSGLRSDDTAVYFCARVTYNIGWYIDYWGQGTLVTVSSASTKGPSVFPLAPSSKSTSGGTAALGCLVKDYFPEPVTVSWNSGALTSGVHTFPAVLQSSGLYSLSSVVTVPSSSLGTQTYICNVNHKPSNTKVDKKVEPKSCDKTHTCPPCPAPEAAGGPSVFLFPPKPKDTLMISRTPEVTCVVVDVSHEDPEVKFNWYVDGVEVHNAKTKPREEQYNSTYRVVSVLTVLHQDWLNGKEYKCKVSNKALGAPIEKTISKAKGQPREPQVCTLPPSRDELTKNQVSLSCAVKGFYPSDIAVEWESNGQPENNYKTTPPVLDSDGSFKLVSKLTVDKSRWQQGNVFSCSVMHEALHNHYTQKSLSLSPGKGGGGSGGGGSGGGGSGGGGSAPASSSTKKTQLQLEHLLLDLQMILNGINNYKNPLLTDMLTRKFYMPKKATELKHLQCLEEELKPLEEVLNLAQSKNFHLRPRDLISNINVIVLELKGSETTFMCEYADETATIVEFLNRWITFSQSIISTLT
light: B2 light
notes: Anti-CD3 sp34 scFv-Fc knob (EP369), B09 heavy chain hole with K35L R38D F42R IL2 at the C-terminus (EP379), light chain EP289; also called EP369/EP379/EP289
B5: EP697/EP378/EP289 anti-Nectin4/CD3 bispecific antibody (bispecific antibody)
heavy 1: B3 heavy 1 with Y289A, N291A, Y342A, T381A, R402A, I466E, F468Y, S481G, V485L
heavy 2: not shown
light: B2 light
notes: EP697: two residue mutations within HCDR2 and a single point mutation within HCDR3 of the anti-CD3 scFv of EP500; also called EP697/378/289
B6: EP500/EP378/EP289 anti-Nectin4/CD3 bispecific antibody (bispecific antibody)
heavy 1: B3 heavy 1 with T381A, R402A, I466E, F468Y, S481G, V485L
heavy 2: not shown
light: B2 light
notes: Bivalent for Nectin4; EP500 carries a humanized SP34 scFv between CH1 and hinge, hole; template of EP695, EP696 and EP697; also called EP500/378/289

Columns and labels:
[1] = target: T1, full-length human Nectin4 with …; assay: flow cytometry, IgG on Nectin4/CHO cells, anti-hFc Alexa fluor 647
Protocol: 200 nM of purified anti-Nectin4 IgG antibodies were diluted in full medium and incubated with Nectin4/CHO and CHO cells in 96 wells plate on ice for 1 hour. Cells were spun down at 1200 rpm for 5 minutes at 4° C. to remove primary antibodies. Cells were then washed once with 200 uL of full medium per well. Samples were detected with anti-hFc Alexa fluor 647 by adding 100 uL of diluted secondary antibody and incubated at 4° C. for 30 minutes in the dark. Samples were spun down at 1200 rpm for 5 minutes at 4° C. and washed twice with 200 uL of 1×PBS per well. Reconstituted samples in 200 uL of 1×PBS and read on Attune NxT cytometer. Analysis was done by Attune NxT software plotting the overlay histogram of […] proteins binding onto both negative and target cell lines.

[2] = target: T2, human Nectin4-HIS tagged recombinant …; assay: ELISA, coated human Nectin4-HIS, IgG titrated, anti-hFc HRP
Protocol: An ELISA assay was developed to determine the EC₅₀ of exemplary anti-Nectin4 IgG antibodies. Briefly, 384 well plate was immobilized with human Nectin4-HIS tagged recombinant protein at final concentration of 2 ug/mL in 1×PBS in total volume of 25 uL per well. The plate was incubated overnight at 4° C. followed by blocking with 80 uL of superblock per well for 1 hour. Titration of purified anti-Nectin4 IgG starting at 200 nM 2-fold serial dilution, 25 uL was added to human Nectin4 immobilized wells and incubated for 1 hour with shaking. The Nectin4 binding was detected by adding 25 uL of anti-hFc HRP diluted at 1:5000 in 1×PBST. In between each step, the plate was washed 3 times with 1×PBST in a plate washer. The plate was then developed with 20 ul of TMB substrate for 5 mins and stopped by adding 20 ul of 2N sulfuric acid. The plate was read at OD450 nm Biotek plate reader and then plotted in Prism 8.1 software.

CD3 on Jurkat cells [3] = target: T3, CD3 on Jurkat cells (UniProt P07766 23-207, limits assumed); assay: flow cytometry on Jurkat cells
T3 construct: whole, on cells; the whole CD3/TCR complex stands on the cells; also called Jurkat CD3
Protocol: Jurkat cells were plated at 100,000 cells/well in a 96-well plate with 50 μL of full media. Anti-Nectin4/CD3 antibodies were 3-fold serial titrated from 20 nM. 50 μL was added to the cells and incubated for 1 hours at room temperature with shaking. Samples were washed one time with flow buffer. […] Samples were washed once with flow buffer. Samples were stained with 100 uL Zombie Fixable Viability Dyes at 1:800 dilution per well and incubated in dark at room temperature for 30 mins. Samples were spun down at 1300 rpm for 5 minutes and washed once with 200 uL flow buffer. Reconstituted samples in 200 uL of flow buffer and read on Attune NxT cytometer. EC50 values for CD3 binding were calculated using Prism 8.1 software.
Similar methods of above mentioned were used to measure the binding activities of anti-Nectin4/CD3/IL-2 complexes to CHO/Nectin4 and Jurkat cells, respectively.

[4] = target: T2, human Nectin4-HIS tagged recombinant …; assay: ELISA, coated human Nectin4-HIS, complex titrated, anti-hFc HRP
Protocol: ELISA was performed to determine the EC₅₀ of anti-Nectin4/CD3/IL2 protein complexes. Briefly, 384 well plate was immobilized with human Nectin4-HIS tagged recombinant protein at final concentration of 2 ug/mL in 1×PBS in total volume of 25 uL per well. The plate was incubated overnight at 4° C. followed by blocking with 80 uL of superblock per well for 1 hour. […] The Nectin4 binding was detected by adding 25 uL of anti-hFc HRP diluted at 1:10000 in 1×PBST. In between each step, the plate was washed 3 times with […] in a plate washer. The plate was then developed with 20 ul of TMB substrate for 5 mins and stopped by adding 20 ul of 2N sulfuric acid. The plate was read at OD450 nm Biotek plate reader and then plotted in Prism 8.1 software. Similar SPR methods were applied to measure the binding of the protein complexes to Nectin4, CD3E and IL2 receptors.

CD3 on Jurkat cells [5] = target: T3, CD3 on Jurkat cells; assay: cell-based or functional assay
[6] = target: T2, human Nectin4-HIS tagged recombinant …; assay: ELISA, coated Nectin4 HIS tagged protein, bispecific titrated, anti-Human HRP
Protocol: An ELISA assay was developed to determine the EC₅₀ of anti-Nectin4/CD3 bispecific antibodies. Briefly, 384 well plate was immobilized with human CD3E or Nectin4 HIS tagged protein at final concentration of 2 ug/mL in 1×PBS in total volume of 25 uL per well. The plate was incubated overnight at 4° C. followed by blocking with 80 uL of superblock per well for 1 hour. Purified anti-Nectin4/CD3 was 3-fold serial titrated from 100 nM. 25 uL was added to human Nectin4/CD3 immobilized wells and incubated for 1 hour with shaking. The CD3E or Nectin4 binding was detected by adding 25 uL of anti-Human HRP diluted at 1:10000 in 1×PBST. In between each step, the plate was washed 3 times with […] in a plate washer. The plate was then developed with 20 ul of TMB substrate for 5 mins and stopped by adding 20 ul of 2N sulfuric acid. The plate was read at OD450 nm Biotek plate reader and then plotted in Prism 8.1 software to calculate EC50.

[7] = target: T1, full-length human Nectin4 with …; assay: flow cytometry on CHO/Nectin4 cells
Protocol: Nectin4/CHO Nectin4 cells were plated at 100,000 cells/well in a 96-well plate in 50 μL of full media. Cells were rested 1 hour at 37° C. Anti-Nectin4/CD3 was 3-fold serial titrated from 50 nM. 50 μL was added to the cells and incubated for 1 hours with shaking. Samples were washed one time with flow buffer. […] Samples were washed once with flow buffer. Samples were stained with 100 uL Zombie Fixable Viability Dyes (1:800 dilution) per well and incubated in dark at room temperature for 30 mins. Samples were spun down at 1200 rpm for 5 minutes and washed once with 200 uL flow buffer. Reconstituted samples in 200 uL of flow buffer and read on Attune NxT cytometer. EC₅₀ values for Nectin4 Binding were determined using Prism software.

T3 sequence (P07766 23-207 limits assumed): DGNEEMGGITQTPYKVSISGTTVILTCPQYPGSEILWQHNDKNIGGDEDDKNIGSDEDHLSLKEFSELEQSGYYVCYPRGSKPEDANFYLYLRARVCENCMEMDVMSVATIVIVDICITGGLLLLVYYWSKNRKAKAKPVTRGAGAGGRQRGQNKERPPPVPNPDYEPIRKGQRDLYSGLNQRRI

Binder	EC50 (CD3 on Jurkat cells [3]) [nM]	EC50 [4] [nM]	Jurkat Cell Activation Activity, NFAT reporter EC50 (CD3 on Jurkat cells [5]) [nM]	EC50 [6] [nM]	EC50 [7] [nM]	further results
B1						EC50 [1]: 0.125 nM; EC50 [2]: 0.119 nM
B2	1.65	0.016	0.009			
B3				0.025	0.235	
B4	1.04	0.042	0.044			
B5						binding result (CD3 on Jurkat cells [3]): no binding
B6				0.022	0.234	
